{
  "source": "patent US20240383992A1",
  "about": "(ORICELL THERAPEUTICS, published 2024)",
  "data": [
    {"target": "T1, BCMA expressed on MM1s cells (UniProt Q02223 1-184, limits assumed)", "T1 sequence (looked up)": "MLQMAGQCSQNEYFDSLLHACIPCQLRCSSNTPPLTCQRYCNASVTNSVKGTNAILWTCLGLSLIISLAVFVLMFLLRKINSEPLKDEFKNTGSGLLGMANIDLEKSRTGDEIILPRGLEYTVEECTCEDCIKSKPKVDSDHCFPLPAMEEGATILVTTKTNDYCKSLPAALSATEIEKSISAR", "assay": "cell-based or functional assay", "units": {"killing toxicity against the target cell at effector-to-target ratio 1:1": "%", "killing toxicity against the target cell at effector-to-target ratio 3:1": "%"}, "values": [
      {"binder": "hBCMA-17 CAR (other) EIVLTQSPATLSLSPGERATLSCRASESVSVSGIHLLHWYQQKPGQAPRLLIYLGRNRAAGIPARFSGSGSGTDFTLTISSLEPEDAAIYYCLQSRRFPRHFGQGTKLEIKGSTSGSGKPGSGEGSTKGQVQLVQSGAEVKKPGASVKVSCKASGYTFADYTINWVRQATGQGLEWMGWINTETREPTYAYDFRSRFTFTLNTSISTAYLELSSLRSEDTAVYYCARDIRYVMDYWGQGTLVTVSSTTTPAPRPPTPAPTIASQPLSLRPEACRPAAGGAVHTRGLDFACDIYIWAPLAGTCGVLLLSLVITLYCKRGRKKLLYIFKQPFMRPVQTTQEEDGCSCRFPEEEEGGCELRVKFSRSADAPAYQQGQNQLYNELNLGRREEYDVLDKRRGRDPEMGGKPRRKNPQEGLYNELQKDKMAEAYSEIGMKGERRRGKGHDGLYQGLSTATKDTYDALHMQALPPR", "killing toxicity against the target cell at effector-to-target ratio 1:1": "> 20", "killing toxicity against the target cell at effector-to-target ratio 3:1": "> 70"},
      {"binder": "hBCMA-23 CAR (other) EIVLTQSPATLSLSPGERATLSCRASESVSVPGISFIHWYQQKPGQAPRLLIYLGSNRPSGIPARFSGSGSGTDFTLTISSLEPEDAAIYYCLQSRRFPRHFGQGTKLEIKGSTSGSGKPGSGEGSTKGQVQLVQSGAEVKKPGASVKVSCKASGYTFADYTINWVRQATGQGLEWMGWINTETREPTYAYDFRSRFTFTLNTSISTAYLELSSLRSEDTAVYYCARDIRYVMDYWGQGTLVTVSSTTTPAPRPPTPAPTIASQPLSLRPEACRPAAGGAVHTRGLDFACDIYIWAPLAGTCGVLLLSLVITLYCKRGRKKLLYIFKQPFMRPVQTTQEEDGCSCRFPEEEEGGCELRVKFSRSADAPAYQQGQNQLYNELNLGRREEYDVLDKRRGRDPEMGGKPRRKNPQEGLYNELQKDKMAEAYSEIGMKGERRRGKGHDGLYQGLSTATKDTYDALHMQALPPR", "killing toxicity against the target cell at effector-to-target ratio 1:1": "> 20", "killing toxicity against the target cell at effector-to-target ratio 3:1": "> 70"},
      {"binder": "hBCMA-19 CAR (other) EIVLTQSPATLSLSPGERATLSCRASESVSVPGISFIHWYQQKPGQAPRLLIYLGRNRAAGIPARFSGSGSGTDFTLTISSLEPEDAAIYYCLQSRRFPRHFGQGTKLEIKGSTSGSGKPGSGEGSTKGQVQLVQSGAEVKKPGASVKVSCKASGYTFADYTINWVRQATGQGLEWMGWINTETREPAYAYDFRGRFTFTLNTSISTAYLELSSLRSEDTAVYYCARDIRYVMDYWGQGTLVTVSSTTTPAPRPPTPAPTIASQPLSLRPEACRPAAGGAVHTRGLDFACDIYIWAPLAGTCGVLLLSLVITLYCKRGRKKLLYIFKQPFMRPVQTTQEEDGCSCRFPEEEEGGCELRVKFSRSADAPAYQQGQNQLYNELNLGRREEYDVLDKRRGRDPEMGGKPRRKNPQEGLYNELQKDKMAEAYSEIGMKGERRRGKGHDGLYQGLSTATKDTYDALHMQALPPR", "killing toxicity against the target cell at effector-to-target ratio 1:1": "> 20", "killing toxicity against the target cell at effector-to-target ratio 3:1": "> 70"},
      {"binder": "hBCMA-20 CAR (other) EIVLTQSPATLSLSPGERATLSCRASESVSVPGISFIHWYQQKPGQAPRLLIYLGRNRAAGIPARFSGSGSGTDFTLTISSLEPEDAAIYYCLQSRRFPRHFGQGTKLEIKGSTSGSGKPGSGEGSTKGQVQLVQSGAEVKKPGASVKVSCKASGYTFADYTINWVRQATGQGLEWMGWINTETREPTYAYDFRSRFTFTLNTSISTAYLELSSLRSEDTAVYYCARDIRYVMDYWGQGTLVTVSSTTTPAPRPPTPAPTIASQPLSLRPEACRPAAGGAVHTRGLDFACDIYIWAPLAGTCGVLLLSLVITLYCKRGRKKLLYIFKQPFMRPVQTTQEEDGCSCRFPEEEEGGCELRVKFSRSADAPAYQQGQNQLYNELNLGRREEYDVLDKRRGRDPEMGGKPRRKNPQEGLYNELQKDKMAEAYSEIGMKGERRRGKGHDGLYQGLSTATKDTYDALHMQALPPR", "killing toxicity against the target cell at effector-to-target ratio 1:1": "> 20", "killing toxicity against the target cell at effector-to-target ratio 3:1": "> 70"},
      {"binder": "hBCMA-22 CAR (other) EIVLTQSPATLSLSPGERATLSCRASESVSVPGISFIHWYQQKPGQAPRLLIYLGSNRPSGIPARFSGSGSGTDFTLTISSLEPEDAAIYYCLQSRRFPRHFGQGTKLEIKGSTSGSGKPGSGEGSTKGQVQLVQSGAEVKKPGASVKVSCKASGYTFADYTINWVRQATGQGLEWMGWINTETREPAYAYDFRGRFTFTLNTSISTAYLELSSLRSEDTAVYYCARDIRYVMDYWGQGTLVTVSSTTTPAPRPPTPAPTIASQPLSLRPEACRPAAGGAVHTRGLDFACDIYIWAPLAGTCGVLLLSLVITLYCKRGRKKLLYIFKQPFMRPVQTTQEEDGCSCRFPEEEEGGCELRVKFSRSADAPAYQQGQNQLYNELNLGRREEYDVLDKRRGRDPEMGGKPRRKNPQEGLYNELQKDKMAEAYSEIGMKGERRRGKGHDGLYQGLSTATKDTYDALHMQALPPR", "killing toxicity against the target cell at effector-to-target ratio 1:1": "> 20", "killing toxicity against the target cell at effector-to-target ratio 3:1": "> 70"}
    ]}
  ]
}
